The assay addresses T1, G. violaceus transcriptional regulator, with His tag (Gloeobacter violaceus PCC 7421).
T1 construct: GvTcR, helix-turn-helix type transcriptional regulator of Gloeobacter violaceus PCC 7421, NCBI WP_011141437.1; gene amplified from genomic DNA with the printed primers (forward from the start codon, reverse adds His6 before the stop codon); also called GvTcR; HTH transcription factor protein; source: E. coli UT5600, purified (Ni-NTA); also in cell lysate; also co-expressed with GR from one pKA001 …
Briefly: ITC; MicroCal ITC200, room temperature, sonication buffer (150 mM NaCl, 50 mM Tris-HCl, pH 7.0) with 0.02% DDM; which protein was titrated is not told. Conditions: both partners purified. (Isothermal titration calorimetry measures the heat released or taken up as one component is titrated into another.)

The results in this text go back to paper PMC11217422, “Proton-pumping photoreceptor controls expression of ABC transporter by regulating transcription factor through light” (Communications Biology, 2024).

B1: GR R69A/K141A double mutant (natural protein)
chain: MLMTVFSSAPELALLGSTFAQVDPSNLSVSDSLTYGQFNLVYNAFSFAIAAMFASALFFFSAQALVGQAYRLALLVSAIVVSIAGYHYFRIFNSWDAAYVLENGVYSLTSEKFNDAYRYVDWLLTVPLLLVETVAVLTLPAAEARPLLIKLTVASVLMIATGYPGEISDDITTRIIWGTVSTIPFAYILYVLWVELSRSLVRQPAAVQTLVRNMRWLLLLSWGVYPIAYLLPMLGVSGTSAAVGVQVGYTIADVLAKPVFGLLVFAIALVKTKADQESSEPHAAIGAAANKSGGSLIS
modifications: retinal chromophore bound by a Schiff base (residue not given)
Take B1: the Kd (usually a measure of binding affinity in units of concentration) stood at 6.2 ± 3.15 mM.
